Experimental findings from patent publication US20040014670A1 (AJINOMOTO, published 2004) are described below.

In assay [1] the target is rabbit pulmonal angiotensin converting enzyme (Sigma) (rabbit) (UniProt P12822). As to the kind of experiment: cell-based or functional assay.
In assay [2] the target is T1, rabbit pulmonal angiotensin converting enzyme (Sigma) (rabbit, UniProt P12822 34-1310, limits assumed).
T1 sequence (looked up): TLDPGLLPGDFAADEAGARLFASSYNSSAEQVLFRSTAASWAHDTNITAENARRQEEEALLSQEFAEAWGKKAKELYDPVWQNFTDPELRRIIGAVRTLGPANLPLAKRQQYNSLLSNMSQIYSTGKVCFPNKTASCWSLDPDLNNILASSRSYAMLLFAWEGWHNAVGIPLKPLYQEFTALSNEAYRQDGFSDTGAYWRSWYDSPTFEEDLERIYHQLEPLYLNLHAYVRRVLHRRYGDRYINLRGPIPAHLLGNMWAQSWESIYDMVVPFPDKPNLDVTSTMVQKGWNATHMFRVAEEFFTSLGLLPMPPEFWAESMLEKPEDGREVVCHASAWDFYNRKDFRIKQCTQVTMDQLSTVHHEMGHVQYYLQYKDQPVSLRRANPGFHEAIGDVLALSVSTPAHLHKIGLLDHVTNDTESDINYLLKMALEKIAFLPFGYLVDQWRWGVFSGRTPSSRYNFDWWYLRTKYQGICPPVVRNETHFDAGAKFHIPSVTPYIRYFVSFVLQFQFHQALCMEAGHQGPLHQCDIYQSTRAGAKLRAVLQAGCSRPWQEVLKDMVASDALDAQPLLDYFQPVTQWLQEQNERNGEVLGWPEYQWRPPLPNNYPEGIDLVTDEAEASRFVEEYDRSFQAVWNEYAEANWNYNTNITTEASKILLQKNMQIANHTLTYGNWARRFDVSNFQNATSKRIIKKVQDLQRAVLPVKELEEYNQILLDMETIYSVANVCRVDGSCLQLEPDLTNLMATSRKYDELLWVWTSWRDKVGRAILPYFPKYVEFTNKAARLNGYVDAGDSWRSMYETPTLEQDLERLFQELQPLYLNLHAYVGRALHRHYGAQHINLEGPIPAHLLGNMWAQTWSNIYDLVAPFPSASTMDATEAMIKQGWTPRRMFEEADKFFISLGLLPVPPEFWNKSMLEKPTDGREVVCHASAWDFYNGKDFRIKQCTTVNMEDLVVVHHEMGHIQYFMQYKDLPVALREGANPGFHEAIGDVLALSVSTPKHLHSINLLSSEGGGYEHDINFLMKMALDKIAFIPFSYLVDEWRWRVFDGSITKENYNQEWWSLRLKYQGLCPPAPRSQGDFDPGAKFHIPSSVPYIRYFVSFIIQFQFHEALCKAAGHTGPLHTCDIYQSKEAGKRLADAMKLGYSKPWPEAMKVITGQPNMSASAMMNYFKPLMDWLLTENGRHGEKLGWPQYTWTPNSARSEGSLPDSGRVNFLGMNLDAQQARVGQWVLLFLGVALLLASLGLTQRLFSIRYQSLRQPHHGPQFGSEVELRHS
Put plainly: cell-based or functional assay.

Consider Bradykinin potentiator C (peptide), for which the IC50 (µM), inhibition of angiotensin converting enzyme activity (colorimetry at 505 nm, substrate p-hydroxyl benzoyl glycyl-L-histidyl-L-leucine) in assay [1] worked out at 35 µM.
As for “soybean protein hydrolysates prepared with protease D3”, in assay [1], the IC50 value, the concentration for 50% inhibition against ACE worked out at 180 µg/mL.
For the molecule NWGPLV [Asn-Trp-Gly-Pro-Leu-Val], the “IC50 (µM), inhibition of angiotensin converting enzyme activity (colorimetry at 505 nm, substrate p-hydroxyl benzoyl glycyl-L-histidyl-L-leucine)” value in assay [2] is 21 µM.
With PNNKPFQ [Pro-Asn-Asn-Lys-Pro-Phe-Gln], the “IC50 (µM), inhibition of angiotensin converting enzyme activity (colorimetry at 505 nm, substrate p-hydroxyl benzoyl glycyl-L-histidyl-L-leucine)” value in assay [2] was determined as 33 µM.
On the same count and under the same terms, the figure for IPPGVPYWT [Ile-Pro-Pro-Gly-Val-Pro-Tyr-Trp-Thr] is 64 µM.
